Experiments:
Format in all cases: in vivo
[1] = system: Arabidopsis thaliana T1 plants; test: Mesotrione tolerance of transgenic Arabidopsis thaliana T1 plants (spray, bleached leaf area grade, damage score); design: Scores: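 damage score 0-100 computed as Σ(N×S)/(T×M)×100 over grades 0-3 with higher meaning more damage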; conditions: Arabidopsis thaliana T1 plants; for Grade 0 (classification and statistics of the grade of pesticide damage; number of plants) / Grade 1 (classification and statistics of the grade of pesticide damage; number of plants) / Grade 2 (classification and statistics of the grade of pesticide damage; number of plants) / Grade 3 (classification and statistics of the grade of pesticide damage; number of plants): 16 plants
Outline: (§1)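 T1 transformants selected by glufosinate; 18-day-old plants, with empty-vector and wild-type controls, sprayed with topramezone (25–200 g ai/ha), isoxaflutole (35–280 g ai/ha) or mesotrione (52.5–420 g ai/ha), water as 0×. Bleached leaf area fraction scored at 7 DAT as grades 0–3.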

[2] = system: Arabidopsis thaliana T1 plants; test: Topramezone tolerance of transgenic Arabidopsis thaliana T1 plants (spray, bleached leaf area grade, damage score); conditions: 7 DAT, Table 4; for Classification and statistics of the grade of pesticide damage: Grade 0 / Classification and statistics of the grade of pesticide damage: Grade 1 / Classification and statistics of the grade of pesticide damage: Grade 2 / Classification and statistics of the grade of pesticide damage: Grade 3: number of plants; for Scores: pesticide damage score 0-100
Outline: as §1

[3] = system: Arabidopsis thaliana T1 plants; test: Isoxaflutole tolerance of transgenic Arabidopsis thaliana T1 plants (spray, bleached leaf area grade, damage score); design: Scores (pesticide damage): scale not given here; conditions: spray, Arabidopsis thaliana T1 plants; for Classification and statistics of the grade of pesticide damage: Grade 0 (number of plants) / Classification and statistics of the grade of pesticide damage: Grade 1 (number of plants) / Classification and statistics of the grade of pesticide damage: Grade 2 (number of plants) / Classification and statistics of the grade of pesticide damage: Grade 3 (number of plants): 16 plants
Outline: as §1

[4] = isoxaflutole 35 g ai/ha (0.5x field concentration)
[5] = isoxaflutole 70 g ai/ha (1x field concentration)

B1: ZmHPPDm-F372A-02: nucleotide sequence encoding Zea mays HPPD with F372A; vector DBN11767 (nucleic acid)
DNA: ATGCCACCCACACCCACAGCAGCAGCGGCGGGCGCAGCGGTCGCAGCGGCGTCAGCGGCGGAGCAAGCGGCGTTCAGATTGGTTGGTCACCGCAACTTCGTGAGATTCAATCCTCGCTCAGATAGATTCCATACTCTGGCCTTCCACCATGTTGAGCTTTGGTGCGCTGATGCTGCTTCTGCTGCTGGAAGGTTCAGCTTCGGTTTGGGTGCTCCCCTCGCTGCTAGATCTGATTTGAGCACTGGTAACTCAGCACATGCTTCCCTCCTGCTTAGATCTGGCTCTCTGAGCTTCCTTTTCACTGCTCCATATGCTCATGGTGCTGATGCTGCTACAGCTGCTCTCCCTTCATTCTCCGCTGCTGCTGCTAGGAGATTCGCTGCTGATCACGGATTGGCTGTGAGGGCTGTTGCACTTAGAGTTGCTGATGCTGAGGAGGCCTTCCGCACCTCTGTTGCTGCTGGAGCCAGACCAGCTTTCGGACCTGTTGATCTCGGAAGGGGTTTCCGCCTGGCTGAGGTGGAGCTTTACGGCGATGTGGTTCTGCGCTACGTTAGCTATCCTGATGGTGCTGCTGGTGAACCTTTCCTTCCAGGATTCGAGGGTGTGGCCTCACCAGGTGCCGCTGATTACGGCCTGTCCAGATTCGACCACATTGTTGGAAATGTTCCTGAGCTTGCTCCAGCTGCTGCCTACTTCGCTGGCTTCACCGGATTCCATGAGTTCGCCGAGTTCACCACTGAGGATGTGGGAACTGCTGAGTCTGGTTTGAATAGCATGGTGCTCGCCAACAATTCAGAGAACGTTTTGCTCCCTCTGAATGAGCCCGTGCACGGAACAAAGAGAAGGTCCCAGATTCAAACCTTCTTGGATCACCACGGCGGCCCAGGTGTTCAGCATATGGCTCTCGCCTCCGATGACGTGTTGAGAACCCTCAGGGAGATGCAAGCCAGGTCTGCTATGGGTGGCTTCGAGTTCATGGCCCCACCTACAAGCGATTACTATGATGGTGTGCGCAGAAGGGCTGGCGACGTTCTTACCGAGGCTCAGATCAAGGAGTGCCAAGAGCTGGGCGTGCTTGTTGATAGAGATGACCAGGGAGTTCTGCTTCAAATTGCTCCCAAGCCAGTGGGCGACAGGCCTACTTTGTTCCTCGAGATTATCCAGAGAATCGGATGCATGGAGAGGGATGAGAAGGGTCAGGAGTACCAAAAGGGAGGTTGCGGCGGATTCGGCAAGGGAAATTTCTCACAACTCTTCAAGTCCATCGAGGACTATGAAAAGAGTCTGGAAGCGATGCAGGCAGCAGCAGCAGCAACCGCACAGGGGTCGTGA
modifications: ZmHPPDm-F372A-02 Nucleotide Sequence
notes: vector DBN11767
[1]; mesotrione 52.5 g ai/ha
  Resistance evaluation: Moderately
  Scores: 31
  Grade 0 (classification and statistics of the grade of pesticide damage; number of plants): 3
  Grade 1 (classification and statistics of the grade of pesticide damage; number of plants): 11
  Grade 2 (classification and statistics of the grade of pesticide damage; number of plants): 2
  Grade 3 (classification and statistics of the grade of pesticide damage; number of plants): 0
[1]; mesotrione 105 g ai/ha
  Resistance evaluation: Poorly resistant
  Scores: 67
  Grade 0 (classification and statistics of the grade of pesticide damage; number of plants): 0
  Grade 1 (classification and statistics of the grade of pesticide damage; number of plants): 1
  Grade 2 (classification and statistics of the grade of pesticide damage; number of plants): 14
  Grade 3 (classification and statistics of the grade of pesticide damage; number of plants): 1
[2]; topramezone 25 g ai/ha (1×)
  Classification and statistics of the grade of pesticide damage: Grade 0: 16
  Classification and statistics of the grade of pesticide damage: Grade 1: 0
  Classification and statistics of the grade of pesticide damage: Grade 2: 0
  Classification and statistics of the grade of pesticide damage: Grade 3: 0
  Scores: 0
  Resistance evaluation: highly
[2]; topramezone 100 g ai/ha (4×)
  Classification and statistics of the grade of pesticide damage: Grade 0: 4
  Classification and statistics of the grade of pesticide damage: Grade 1: 12
  Classification and statistics of the grade of pesticide damage: Grade 2: 0
  Classification and statistics of the grade of pesticide damage: Grade 3: 0
  Scores: 25
  Resistance evaluation: moderately
[3]; [4]
  Resistance evaluation: Moderately
  Scores (pesticide damage): 33
  Classification and statistics of the grade of pesticide damage: Grade 0 (number of plants): 3
  Classification and statistics of the grade of pesticide damage: Grade 1 (number of plants): 10
  Classification and statistics of the grade of pesticide damage: Grade 2 (number of plants): 3
  Classification and statistics of the grade of pesticide damage: Grade 3 (number of plants): 0
[3]; [5]
  Resistance evaluation: Poorly
  Scores (pesticide damage): 67
  Classification and statistics of the grade of pesticide damage: Grade 0 (number of plants): 0
  Classification and statistics of the grade of pesticide damage: Grade 1 (number of plants): 1
  Classification and statistics of the grade of pesticide damage: Grade 2 (number of plants): 14
  Classification and statistics of the grade of pesticide damage: Grade 3 (number of plants): 1

Source: patent US20250043302A1, “MUTATED HYDROXYPHENYLPYRUVATE DIOXYGENASE POLYPEPTIDE, AND CODING GENE AND USE THEREOF” (BEIJING DABEINONG BIOTECHNOLOGY CO., LTD., priority 2021, published 2025)
